Starred links: 1 amine or outer side, 2 acyl side, 3 side chain; linkers in the order of their positions; H or OH if unused. Non-standard residues stand in square brackets, D forms with d. No end group written: not given here. Phe(4-(5-CO2H-2-pyrimidyl)) = N[C@@H](Cc1ccc(-c2ncc(C(=O)O)cn2)cc1)C(=O)O; Phe(4-(4-Ac-piperazinyl)) = CC(=O)N1CCN(c2ccc(C[C@H](N)C(=O)O)cc2)CC1; dPro(4R-(4-pyridylmethyl)) = O=C(O)[C@H]1C[C@@H](Cc2ccncc2)CN1; Ala(piperidin-4-yl) = O=C([C@H](CC1CCN([*:3])CC1)N[*:1])[*:2]; Trp(βS-Me,4-F) = C[C@@H](c1c[nH]c2cccc(F)c12)[C@H](N)C(=O)O; Bip(4'-COOH) = N[C@@H](Cc1ccc(-c2ccc(C(=O)O)cc2)cc1)C(=O)O; Ala(1-bicyclo(1.1.1)pentyl) = N[C@@H](CC12CC(C1)C2)C(=O)O; dPro(4R-Bzl(4-F)) = O=C(O)[C@H]1C[C@@H](Cc2ccc(F)cc2)CN1; Ala(morpholin-4-yl) = N[C@@H](CN1CCOCC1)C(=O)O; Ala(piperazin-1-yl) = N[C@@H](CN1CCNCC1)C(=O)O; Ala(pyrimidin-5-yl) = N[C@@H](Cc1cncnc1)C(=O)O; Phe(4-COOH) = N[C@@H](Cc1ccc(C(=O)O)cc1)C(=O)O; Pro(cis-4-F) = O=C(O)[C@@H]1C[C@H](F)CN1; Ala(4-THP) = N[C@@H](CC1CCOCC1)C(=O)O; cisHyp = O=C(O)[C@@H]1C[C@H](O)CN1; d(αMeD) = C[C@@](N)(CC(=O)O)C(=O)O; 4Pal = N[C@@H](Cc1ccncc1)C(=O)O; aThr = C[C@H](O)[C@H](N)C(=O)O; αMeD = C[C@](N)(CC(=O)O)C(=O)O; d(αMeS) = C[C@@](N)(CO)C(=O)O; αMeK = C[C@](N)(CCCCN)C(=O)O; Dab = NCC[C@H](N)C(=O)O; Aib = CC(C)(N)C(=O)O
Target: Recombinant human IL-1β (BioLegend 579404) (human, UniProt P01584 117-269)
Experiment: cell-based or functional assay

Binder | MRC5 IC50
cyclo([Bip(4'-COOH)][Ala(1-bicyclo(1.1.1)pentyl)][Phe(4-COOH)]G[Pro(cis-4-F)][Trp(βS-Me,4-F)][Aib]EW[d(αMeS)][Ala(morpholin-4-yl)]QSG[dPro(4R-(4-pyridylmethyl))]) (ring closure inferred; not fully specified (bridges); printed as Bip4CO2H-AlaPent-Phe4COOH-G-Proc4F-SbMeW4F-Aib-E-W-daMeS-AlaMph-Q-S-G-dProc4CH24Pal, cyclic (macrolactam)) [SEQ ID NO: 177] | 0.031 nM
cyclo([Bip(4'-COOH)][Ala(1-bicyclo(1.1.1)pentyl)][Phe(4-COOH)]G[Pro(cis-4-F)][Trp(βS-Me,4-F)][Aib]SW[αMeK][Ala(morpholin-4-yl)]QSG[dPro(4R-Bzl(4-F))]) (ring closure inferred; not fully specified (bridges); printed as Bip4CO2H-AlaPent-Phe4COOH-G-Proc4F-SbMeW4F-Aib-S-W-aMeK-AlaMph-Q-S-G-dProc4Bn4F, cyclic (macrolactam)) [SEQ ID NO: 173] | 0.037 nM
[Bip(4'-COOH)][Ala(1-bicyclo(1.1.1)pentyl)][Phe(4-COOH)]G[Pro(cis-4-F)][Trp(βS-Me,4-F)][Aib]SW[d(αMeS)][Ala(piperidin-4-yl)]QSG[dPro(4R-(4-pyridylmethyl))] (lactam (positions not given here); also: macrolactam ring, closure sites not given here) [SEQ ID NO: 181] | 0.021 nM
cyclo([Bip(4'-COOH)][Ala(1-bicyclo(1.1.1)pentyl)][Phe(4-COOH)]G[Pro(cis-4-F)][Trp(βS-Me,4-F)][Aib]EW[d(αMeS)][Ala(piperidin-4-yl)]QSG[dPro(4R-(4-pyridylmethyl))]) (ring closure inferred; not fully specified (bridges); printed as Bip4CO2H-AlaPent-Phe4COOH-G-Proc4F-SbMeW4F-Aib-E-W-daMeS-AlaPip4-Q-S-G-dProc4CH24Pal, cyclic (macrolactam)) [SEQ ID NO: 178] | 0.041 nM
[Bip(4'-COOH)][Ala(1-bicyclo(1.1.1)pentyl)][Phe(4-COOH)]G[Pro(cis-4-F)][Trp(βS-Me,4-F)][Aib]SW[Aib][Ala(piperidin-4-yl)]QSG[dPro(4R-(4-pyridylmethyl))] (lactam (positions not given here); also: macrolactam ring, closure sites not given here) [SEQ ID NO: 180] | 0.027 nM
cyclo([Bip(4'-COOH)][Ala(1-bicyclo(1.1.1)pentyl)][Phe(4-COOH)]G[Pro(cis-4-F)][Trp(βS-Me,4-F)][Aib]SW[d(αMeS)][Ala(piperidin-4-yl)]Q[Dab]G[dPro(4R-Bzl(4-F))]) (ring closure inferred; not fully specified (bridges); printed as Bip4CO2H-AlaPent-Phe4COOH-G-Proc4F-SbMeW4F-Aib-S-W-daMeS-AlaPip4-Q-Dab-G-dProc4Bn4F, cyclic (macrolactam)) [SEQ ID NO: 172] | 0.016 nM
[Bip(4'-COOH)][Ala(1-bicyclo(1.1.1)pentyl)][Phe(4-COOH)]G[Pro(cis-4-F)][Trp(βS-Me,4-F)][Aib]SW[Aib][Ala(morpholin-4-yl)]QSG[dPro(4R-(4-pyridylmethyl))] (lactam (positions not given here); also: macrolactam ring, closure sites not given here) [SEQ ID NO: 179] | 0.029 nM
cyclo([Bip(4'-COOH)][Ala(1-bicyclo(1.1.1)pentyl)][Phe(4-COOH)]G[Pro(cis-4-F)][Trp(βS-Me,4-F)][Aib]EW[Aib][Ala(piperidin-4-yl)]QSG[dPro(4R-(4-pyridylmethyl))]) (ring closure inferred; not fully specified (bridges); printed as Bip4CO2H-AlaPent-Phe4COOH-G-Proc4F-SbMeW4F-Aib-E-W-Aib-AlaPip4-Q-S-G-dProc4CH24Pal, cyclic (macrolactam)) [SEQ ID NO: 176] | 0.036 nM
cyclo([Bip(4'-COOH)][Ala(1-bicyclo(1.1.1)pentyl)][Phe(4-COOH)]G[Pro(cis-4-F)][Trp(βS-Me,4-F)][Aib]SW[αMeK][Ala(morpholin-4-yl)]Q[Dab]G[dPro(4R-Bzl(4-F))]) (ring closure inferred; not fully specified (bridges); printed as Bip4CO2H-AlaPent-Phe4COOH-G-Proc4F-SbMeW4F-Aib-S-W-aMeK-AlaMph-Q-Dab-G-dProc4Bn4F, cyclic (macrolactam)) [SEQ ID NO: 174] | 0.025 nM
cyclo([Bip(4'-COOH)][Ala(1-bicyclo(1.1.1)pentyl)][Phe(4-COOH)]G[Pro(cis-4-F)][Trp(βS-Me,4-F)][Aib]SW[αMeK][Ala(piperazin-1-yl)]QSG[dPro(4R-Bzl(4-F))]) (ring closure inferred; not fully specified (bridges); printed as Bip4CO2H-AlaPent-Phe4COOH-G-Proc4F-SbMeW4F-Aib-S-W-aMeK-AlaPiperaz-Q-S-G-dProc4Bn4F, cyclic (macrolactam)) [SEQ ID NO: 175] | 0.037 nM

The next lines start with the values.

MRC5 IC50 | Binder
0.015 nM | [Phe(4-(5-CO2H-2-pyrimidyl))][4Pal][Phe(4-COOH)]G[Pro(cis-4-F)][Trp(βS-Me,4-F)][Aib]SW[αMeD][Ala(pyrimidin-5-yl)]Q[Dab]G[dPro(4R-(4-pyridylmethyl))] (lactam (positions not given here); also: macrolactam ring, closure sites not given here) [SEQ ID NO: 187]
0.043 nM | [Phe(4-(5-CO2H-2-pyrimidyl))][Ala(1-bicyclo(1.1.1)pentyl)][Phe(4-COOH)]G[cisHyp][Trp(βS-Me,4-F)][Aib]SW[Aib][Ala(pyrimidin-5-yl)]Q[Dab]G[dPro(4R-(4-pyridylmethyl))] (lactam (positions not given here); also: macrolactam ring, closure sites not given here) [SEQ ID NO: 185]
0.02 nM | [Phe(4-(5-CO2H-2-pyrimidyl))][Ala(1-bicyclo(1.1.1)pentyl)][Phe(4-COOH)]G[Pro(cis-4-F)][Trp(βS-Me,4-F)][Aib]SW[αMeD][Ala(pyrimidin-5-yl)]Q[Dab]G[dPro(4R-(4-pyridylmethyl))] (lactam (positions not given here); also: macrolactam ring, closure sites not given here) [SEQ ID NO: 188]
0.049 nM | [Bip(4'-COOH)][Ala(1-bicyclo(1.1.1)pentyl)][Phe(4-COOH)]G[cisHyp][Trp(βS-Me,4-F)][Aib][aThr]W[d(αMeD)][Ala(pyrimidin-5-yl)]Q[Dab]G[dPro(4R-(4-pyridylmethyl))] (lactam (positions not given here); also: macrolactam ring, closure sites not given here) [SEQ ID NO: 182]
0.014 nM | [Phe(4-(4-Ac-piperazinyl))][4Pal][Phe(4-COOH)]G[Pro(cis-4-F)][Trp(βS-Me,4-F)][Aib]SW[αMeD][Ala(pyrimidin-5-yl)]Q[Dab]G[dPro(4R-Bzl(4-F))] (lactam (positions not given here); also: macrolactam ring, closure sites not given here) [SEQ ID NO: 184]
0.025 nM | [Phe(4-(4-Ac-piperazinyl))][4Pal][Phe(4-COOH)]G[Pro(cis-4-F)][Trp(βS-Me,4-F)][Aib]SW[Aib][Ala(pyrimidin-5-yl)]Q[Dab]G[dPro(4R-Bzl(4-F))] (lactam (positions not given here); also: macrolactam ring, closure sites not given here) [SEQ ID NO: 183]
0.015 nM | [Phe(4-(5-CO2H-2-pyrimidyl))][4Pal][Phe(4-COOH)]G[Pro(cis-4-F)][Trp(βS-Me,4-F)][Aib]SW[Aib][Ala(pyrimidin-5-yl)]Q[Dab]G[dPro(4R-(4-pyridylmethyl))] (lactam (positions not given here); also: macrolactam ring, closure sites not given here) [SEQ ID NO: 186]
0.019 nM | [Bip(4'-COOH)][Ala(1-bicyclo(1.1.1)pentyl)][Phe(4-COOH)]G[cisHyp][Trp(βS-Me,4-F)][Aib]SW[d(αMeS)][Ala(pyrimidin-5-yl)]Q[Dab]G[dPro(4R-(4-pyridylmethyl))] (lactam (positions not given here); also: macrolactam ring, closure sites not given here) [SEQ ID NO: 190]
0.016 nM | [Bip(4'-COOH)][4Pal][Phe(4-COOH)]G[Pro(cis-4-F)][Trp(βS-Me,4-F)][Aib]SW[αMeD][Ala(4-THP)]QSG[dPro(4R-(4-pyridylmethyl))] (lactam (positions not given here); also: macrolactam ring, closure sites not given here) [SEQ ID NO: 189]

— patent US20260242419A1, “A CYCLIC PEPTIDE FOR TRAPPING INTERLEUKIN-1 BETA” (Merck Sharp & Dohme LLC, priority 2023, published 2026)
